The text below walks through data of patent US20150203579A1 (Regeneron, published 2015).

Positions count from the first letter of the chain named. In names and notes the source's numbering stands.

The labels stand for the following.
B1: H4xH9045P (antibody, V domains shown)
VH: EVQLVESGGGLVQPGRSLRLSCAASGFTFDDYDMHWVRQAPGKGLEWVSGSGWNRGSLGYADSVKGRFTISRDNAKKSLYLQMNSVRVEDTALYYCAKGFVVVSAAYFDYWGQGTLVTVSS
VL: not shown
notes: Human IgG4 Fc with 2 or more amino acid changes (H4xH); also called H4xH9045P2
B2: H4xH9037P (antibody, V domains shown)
VH: EVQLVESGGGLVQPGGSLRLSCAASGFTFDDYAMHWVRQAPGKGLEWVSGIGWSSGSIGYADSVKGRFTISRDNAKNSLYLQMDSLRPEDSALYYCAKAYTFMITLYFDYWGQGTLVTVSS
VL: not shown
notes: Human IgG4 Fc with 2 or more amino acid changes (H4xH); also called H4xH9037P2
B3: H4xH9034P (antibody, V domains shown)
VH: EVQLVESGGGVVRPGGSLRLSCTASGFTFDDYGMSWVRQAPGKGLEWISGIGWTGGRSSYADSVRGRFTISRDNAKNSLYLQMNSLGAEDTALYYCARDRQWLVQWYFDYWGQGTLVTVSS
VL: not shown
notes: Human IgG4 Fc with 2 or more amino acid changes as disclosed in US20100331527 (H4xH); also called H4xH9034P2
B4: H4xH9120P2 (antibody, V domains shown)
VH: QVQLVQSGAEVKRPGASVKVSCKASGYTFTSFYMYWVRQAPGQGLEWMGIINPSDGSTSNAQKFQGRVTMTRDTSTSTVYMELSSLRSEDTAVYYCARRVAGDIFDIWGQGTMVTVSS
VL: not shown
notes: Human IgG4 Fc with 2 or more amino acid changes (H4xH)
B5: H4xH9048P2 (antibody, V domains shown)
VH: QVQLVQSGAEVKRPGSSVKVSCKVSGVTFRNFAIIWVRQAPGQGLEWMGGIIPFFSAANYAQSFQGRVTITPDESTSTAFMELASLRSEDTAVYYCAREGERGHTYGFDYWGQGTLVTVSS
VL: not shown
notes: as for B4
B6: H4xH9119P2 (antibody, V domains shown)
VH: EVQLVESGGGLVQPGRSLRLSCAASGFTFEDYAMHWVRQAPGKGLEWVSGIGWSNVKIGYADSVKGRFTISRDNVRNSLYLQMNSLRTEDTAFYYCVKAYTSMLTLYFDYWGQGTLVTVSS
VL: not shown
notes: as for B4
B7: H4xH9128P2 (antibody, V domains shown)
VH: QVQLQESGPGLVKPSETLSLTCTVSGGSISSYHWNWIRQSPGKGLEWIGYIYYIGSTDYNPSLESRVTISVDTSKNQFSLKLSSVTAADTAVYYCARVPVGATGASDVWGQGTMVTVSS
VL: not shown
notes: as for B4
B8: H4H9019P (antibody, human IgG4, V domains shown)
VH: EVQLVESGGGVVRPGGSLRLSCAASGFTFDDYGMSWVRQVPGKGLEWVSGISWNDGKTVYAESVKGRFIISRDNAKNSLYLEMNSLRAEDTALYYCARDWQYLIERYFDYWGQGTLVTVSS
VL: not shown
notes: Fully human; H4H prefix (human IgG4 Fc)
B9: H4xH9035P (antibody, V domains shown)
VH: B8 VH with G10R, V40L, S49A, Y80H, E105D, Y110F
VL: not shown
notes: Human IgG4 Fc with 2 or more amino acid changes (H4xH); also called H4xH9035P2

The target in one experiment is T1, human PD-1 dimer (human PD-1-mFc or human PD-1-hFc) (human, UniProt Q15116 25-170).
T1 construct: also called hPD-1-mFc; hPD1-hFc
T1 sequence (Q15116 25-170 C93S): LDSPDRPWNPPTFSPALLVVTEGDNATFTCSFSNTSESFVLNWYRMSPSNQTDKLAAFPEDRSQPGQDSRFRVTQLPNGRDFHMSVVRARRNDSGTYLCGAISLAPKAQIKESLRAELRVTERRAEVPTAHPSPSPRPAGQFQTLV
As to the kind of experiment: SPR, mAb captured, 25C. In general terms: In SPR one partner is held on a chip, and binding of the other changes the refractive index at the surface.
For orientation: Kd means the free concentration of one partner at which half of the binding sites on the other are occupied at equilibrium, for simple one-to-one binding. In general, koff refers to the rate constant with which the complex falls apart. The term kon denotes a measure of how fast the partners come together. What is called t½ is the time in which the quantity being followed falls by half. In turn, B1 came in with a Kd of 1.75 nM, a koff of 0.00016 s⁻¹, a kon of 91300 M⁻¹ s⁻¹ and a t½ of 72 min.
The matching figures for B2: 0.862 nM, 0.000129 s⁻¹, 150000 M⁻¹ s⁻¹ and 89 min.
B3 registered an equilibrium dissociation constant (Kd) of 0.701 nM, a koff of 0.000151 s⁻¹, a kon of 215000 M⁻¹ s⁻¹ and a t½ of 77 min.
Taken in the same sequence, the figures for B4 were 1.82 nM, 0.000119 s⁻¹, 65200 M⁻¹ s⁻¹ and 97 min.
Take B5: the affinity, expressed as Kd, was 0.798 nM; the koff was 0.000188 s⁻¹; the kon was determined as 236000 M⁻¹ s⁻¹; the t½ was 61 min.
The matching figures for B6: 0.992 nM, 0.000162 s⁻¹, 163000 M⁻¹ s⁻¹ and 71 min.
The matching figures for B7: 1.59 nM, 0.000133 s⁻¹, 83700 M⁻¹ s⁻¹ and 87 min.
B8 had a Kd of 1.97 nM and a t½ of 134 min.
The molecule B9 showed a Kd of 0.513 nM, a koff of 0.000103 s⁻¹, a kon of 201000 M⁻¹ s⁻¹ and a t½ of 112 min.

For a further experiment, the target named is T2, recombinant cynomolgus monkey PD-1 expressed with a C-terminal myc-myc-hexahistidine tag (cynomolgus monkey (Macaca fascicularis)).
T2 construct: monomeric; also called MfPD-1-MMH
T2 chain: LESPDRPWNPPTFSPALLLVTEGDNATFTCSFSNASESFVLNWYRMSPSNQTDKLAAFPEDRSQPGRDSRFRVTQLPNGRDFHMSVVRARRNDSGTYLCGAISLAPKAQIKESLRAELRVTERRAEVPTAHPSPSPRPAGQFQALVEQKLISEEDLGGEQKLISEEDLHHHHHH
The experiment can be described thus: SPR, mAb captured, 25C.
As for B1, the Kd amounted to 113 nM, the koff was determined as 0.00705 s⁻¹, the kon was 62500 M⁻¹ s⁻¹ and the t½ came to 1.6 min.
In the case of B2, the Kd worked out at 13.1 nM, the koff was determined as 0.000915 s⁻¹, the kon was determined as 69900 M⁻¹ s⁻¹ and the t½ was determined as 13 min.
Taken in the same sequence, the figures for B3 were 28 nM, 0.00269 s⁻¹, 96100 M⁻¹ s⁻¹ and 4.3 min.
On to B4, for which the Kd turned out to be 34.1 nM, the koff was 0.00108 s⁻¹, the kon worked out at 31700 M⁻¹ s⁻¹ and the t½ was found to be 11 min.
The matching figures for B5: 7 nM, 0.000897 s⁻¹, 128000 M⁻¹ s⁻¹ and 13 min.
Take B6: the Kd is 22.2 nM, the koff worked out at 0.00166 s⁻¹, the kon stood at 75000 M⁻¹ s⁻¹ and the t½ is 6.9 min.
Taken in the same sequence, the figures for B7 were 17.7 nM, 0.000649 s⁻¹, 36800 M⁻¹ s⁻¹ and 18 min.
On to B8, for which the Kd was 42.9 nM.
As for B9, the Kd worked out at 4.64 nM, the off-rate (koff) turned out to be 0.000434 s⁻¹, the kon came out at 93600 M⁻¹ s⁻¹ and the t½ is 27 min.

For another experiment, the target named is T1, human PD-1 dimer (human PD-1-mFc or …). As to the kind of experiment: SPR, mAb captured, 37C.
As for B1, binding was characterised by a dissociation constant (Kd) of 5.13 nM, the koff amounted to 0.0011 s⁻¹, the kon was found to be 214000 M⁻¹ s⁻¹ and the t½ turned out to be 11 min.
For the molecule B2, the affinity, expressed as Kd, was 3.5 nM; the koff was determined as 0.000921 s⁻¹; the kon was 263000 M⁻¹ s⁻¹; the t½ amounted to 13 min.
Taken in the same sequence, the figures for B3 were 2.09 nM, 0.00063 s⁻¹, 302000 M⁻¹ s⁻¹ and 18 min.
In turn, B4 yielded a Kd of 5.96 nM, a koff of 0.000482 s⁻¹, a kon of 80800 M⁻¹ s⁻¹ and a t½ of 24 min.
The matching figures for B5: 3.05 nM, 0.0011 s⁻¹, 361000 M⁻¹ s⁻¹ and 10 min.
The matching figures for B6: 3.8 nM, 0.000909 s⁻¹, 240000 M⁻¹ s⁻¹ and 13 min.
Take B7: the Kd was found to be 3.68 nM, the koff amounted to 0.000686 s⁻¹, the kon stood at 186000 M⁻¹ s⁻¹ and the t½ came out at 17 min.
Turning to B8, the Kd amounted to 2.71 nM and the t½ came out at 59 min.
In turn, B9 had a dissociation constant (Kd) of 1.75 nM, a koff of 0.000554 s⁻¹, an association rate constant (kon) of 316000 M⁻¹ s⁻¹ and a t½ of 21 min.

In another experiment the target is T3, recombinant human PD-1 expressed with a C-terminal myc-myc-hexahistidine tag (human).
T3 construct: monomeric; also called hPD-1-MMH; human PD-1-MMH
As to the kind of experiment: SPR, mAb captured, 37C.
Take B1: the Kd turned out to be 662 nM, the koff turned out to be 0.0532 s⁻¹, the kon stood at 80400 M⁻¹ s⁻¹ and the t½ is 0.2 min.
Taken in the same sequence, the figures for B2 were 29.5 nM, 0.00668 s⁻¹, 226000 M⁻¹ s⁻¹ and 1.7 min.
Taken in the same sequence, the figures for B3 were 40.2 nM, 0.0112 s⁻¹, 279000 M⁻¹ s⁻¹ and 1 min.
Consider B4, for which the Kd was 102 nM, the koff amounted to 0.00701 s⁻¹, the kon worked out at 68800 M⁻¹ s⁻¹ and the t½ came out at 1.6 min.
In the case of B5, the dissociation constant Kd was 23.2 nM, the koff was 0.0086 s⁻¹, the kon is 370000 M⁻¹ s⁻¹ and the t½ is 1.3 min.
Taken in the same sequence, the figures for B6 were 43.5 nM, 0.0104 s⁻¹, 240000 M⁻¹ s⁻¹ and 1.1 min.
Turning to B7, the Kd is 42 nM, the koff amounted to 0.00436 s⁻¹, the kon is 104000 M⁻¹ s⁻¹ and the t½ is 2.6 min.
For the molecule B8, the Kd was 453 nM and the t½ was determined as 2.1 min.
B9: the Kd came out at 14.3 nM, the koff was 0.00426 s⁻¹, the kon is 298000 M⁻¹ s⁻¹ and the t½ stood at 2.7 min.

In another experiment the target is T2, recombinant cynomolgus monkey PD-1 …. As to the kind of experiment: SPR, mAb captured, 37C.
For the molecule B1, the Kd was found to be 7540 nM, the koff came out at 0.105 s⁻¹, the kon was 14000 M⁻¹ s⁻¹ and the t½ worked out at 0.1 min.
B2: the Kd stood at 39.7 nM, the off-rate (koff) was found to be 0.0088 s⁻¹, the kon worked out at 222000 M⁻¹ s⁻¹ and the t½ amounted to 1.3 min.
On to B3, for which the equilibrium dissociation constant (Kd) was 87.3 nM, the koff is 0.0247 s⁻¹, the kon came out at 283000 M⁻¹ s⁻¹ and the t½ stood at 0.5 min.
Taken in the same sequence, the figures for B4 were 107 nM, 0.00748 s⁻¹, 69800 M⁻¹ s⁻¹ and 1.5 min.
In the case of B5, the Kd is 16.8 nM, the koff is 0.00697 s⁻¹, the on-rate (kon) came out at 415000 M⁻¹ s⁻¹ and the t½ worked out at 1.7 min.
The matching figures for B6: 51.4 nM, 0.0123 s⁻¹, 240000 M⁻¹ s⁻¹ and 0.9 min.
Take B7: the Kd amounted to 46.1 nM, the koff was found to be 0.00418 s⁻¹, the kon was 90600 M⁻¹ s⁻¹ and the t½ turned out to be 2.8 min.
In the case of B8, the Kd was found to be 356 nM and the t½ is 1.5 min.
With B9, the Kd was determined as 14 nM, the koff was 0.00429 s⁻¹, the kon was 306000 M⁻¹ s⁻¹ and the t½ worked out at 2.7 min.
